B1: Catenin beta-1 (Mus musculus), Q02248 (parent)
chain: MATQADLMELDMAMEPDRKAAVSHWQQQSYLDSGIHSGATTTAPSLSGKGNPEEEDVDTSQVLYEWEQGFSQSFTQEQVADIDGQYAMTRAQRVRAAMFPETLDEGMQIPSTQFDAAHPTNVQRLAEPSQMLKHAVVNLINYQDDAELATRAIPELTKLLNDEDQVVVNKAAVMVHQLSKKEASRHAIMRSPQMVSAIVRTMQNTNDVETARCTAGTLHNLSHHREGLLAIFKSGGIPALVKMLGSPVDSVLFYAITTLHNLLLHQEGAKMAVRLAGGLQKMVALLNKTNVKFLAITTDCLQILAYGNQESKLIILASGGPQALVNIMRTYTYEKLLWTTSRVLKVLSVCSSNKPAIVEAGGMQALGLHLTDPSQRLVQNCLWTLRNLSDAATKQEGMEGLLGTLVQLLGSDDINVVTCAAGILSNLTCNNYKNKMMVCQVGGIEALVRTVLRAGDREDITEPAICALRHLTSRHQEAEMAQNAVRLHYGLPVVVKLLHPPSHWPLIKATVGLIRNLALCPANHAPLREQGAIPRLVQLLVRAHQDTQRRTSMGGTQQQFVEGVRMEEIVEGCTGALHILARDVHNRIVIRGLNTIPLFVQLLYSPIENIQRVAAGVLCELAQDKEAAEAIEAEGATAPLTELLHSRNEGVATYAAAVLFRMSEDKPQDYKKRLSVELTSSLFRTEPMAWNETADLGLDIGAQGEALGYRQDDPSYRSFHSGGYGQDALGMDPMMEHEMGGHHPGADYPVDGLPDLGHAQDLMDGLPPGDSNQLAWFDTDL

Variants of: B1
Conditions: with MAPK9, P45984-1

| Variant | effect of a mutation on the interaction |
| --- | --- |
| S246A | decreasing interaction |
| S191A | disrupting interaction |
| S191A;S246A;S605A | disrupting interaction |
| S605A | decreasing interaction |

Reference: IntAct's records for PubMed 18423204
